Test results published in the supplement of paper PMC10598134.
± gives the standard deviation.

Test: collision cross section of modified peptide (TIMS, N2, iRT-aligned); higher = larger / more extended gas-phase ion
Summary of the method: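 On a timsTOF Pro/HT (dda-PASEF, nitrogen, ~2.4 mbar), synthetic peptide pools were analysed after a 120-min nanoflow C18 separation at 60 °C and identified in MaxQuant. Three reference ions served for 1/K0 calibration, with run-wise alignment to the median iRT peptide deviation. Collision cross section comes from the Mason-Schamp equation, using the most abundant feature per charge state averaged over 1–3 technical replicates.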

[1] = charge state: 2, modification: Citrullination (R)
[2] = charge state: 2, modification: Propionyl
[3] = charge state: 2, modification: Malonyl
[4] = charge state: 2, modification: GlyGly (K)
[5] = charge state: 3, modification: GlyGly (K)
[6] = charge state: 2, modification: hydroxyisobutyryl
[7] = charge state: 3, modification: hydroxyisobutyryl
[8] = charge state: 2, modification: Nitro (Y)
[9] = charge state: 2, modification: Crotonyl
[10] = charge state: 3, modification: Crotonyl
[11] = charge state: 2, modification: Formyl
[12] = charge state: 2, modification: Acetyl (K)
[13] = charge state: 3, modification: Acetyl (K)

Question: With “GRGTSQLAEGATAK [_GR(Citrullination (R))GTSQLAEGATAK_]” as the substance, how does the collision cross section [1] read?
Answer: The collision cross section was 396.62 ± 1 Å².

Question: For “SPSDSGYSYETIGKTTK [_SPSDSGYSYETIGK(Dimethyl (K))TTK_]”, which collision cross section (charge state: 2, modification: Dimethyl (K)) is on record?
Answer: Its collision cross section is 470.19 ± 1.3 Å².

Question: What about the collision cross section (charge state: 3, modification: Dimethyl (K)) of the same substance?
Answer: The collision cross section was 515.36 ± 1.6 Å².

Question: With “LEEVTGKLQVAR [_LEEVTGK(Propionyl)LQVAR_]” as the substance, how does the collision cross section [2] read?
Answer: Its collision cross section is 394.4 ± 1.3 Å².

Question: Which collision cross section [2] does the source give for “DSSPTTNSKLSALQR [_DSSPTTNSK(Propionyl)LSALQR_]” here?
Answer: Its collision cross section is 430.82 ± 2.1 Å².

Question: And the collision cross section (charge state: 3, modification: Propionyl)?
Answer: The collision cross section was 498.95 Å².

Question: Which collision cross section [3] does the source give for LLEQKTQESQK [_LLEQK(Malonyl)TQESQK_] here?
Answer: The collision cross section was 397.91 ± 0.65 Å².

Question: What does the source list for “VGLQVVAVKAPGFGDNR [_VGLQVVAVK(Malonyl)APGFGDNR_]”?
Answer: collision cross section [3]: 445.13 ± 1 Å²; collision cross section (charge state: 3, modification: Malonyl): 541.36 ± 0.027 Å²

Question: With GDAGEPGR [_GDAGEP(Hydroxyproline)GR_] as the substance, how does the collision cross section (charge state: 2, modification: Hydroxyproline) read?
Answer: Its collision cross section is 292.85 ± 1.1 Å².

Question: Which collision cross section (charge state: 3, modification: HexNAc (ST)) does the source give for “EPFSGDHSADGFEVTSR [_EPFS(HexNAc (ST))GDHSADGFEVTSR_]” here?
Answer: Its collision cross section is 513.98 ± 1.8 Å².

Question: With ISALQGKLSK [_ISALQGK(GlyGly (K))LSK_] as the substance, how does the collision cross section [4] read?
Answer: The collision cross section was 369.61 ± 1 Å².

Question: And the collision cross section [5]?
Answer: The collision cross section was 430.51 ± 2 Å².

Question: For “SGYSSPGSPGTPGSR [_SGYSSPGSPGTPGS(HexNAc (ST))R_]”, which collision cross section (charge state: 2, modification: HexNAc (ST)) is on record?
Answer: Its collision cross section is 394.87 ± 0.13 Å².

Question: Which results are given for “FLQEFYQDDELGKK [_FLQEFYQDDELGK(hydroxyisobutyryl)K_]”?
Answer: collision cross section [6]: 452.81 ± 0.81 Å²; collision cross section [7]: 512.84 ± 1.6 Å²

Question: With “DSINFLDHINGKK [_DSINFLDHINGK(Methyl (K))K_]” as the substance, how does the collision cross section (charge state: 3, modification: Methyl (K)) read?
Answer: Its collision cross section is 461.65 ± 2.7 Å².

Question: For “SDSGKPYYYNSQTK [_SDSGK(Biotin)PYYYNSQTK_]”, which collision cross section (charge state: 2, modification: Biotin) is on record?
Answer: The collision cross section was 440.01 ± 0.23 Å².

Question: With “SGFGKFER [_SGFGK(hydroxyisobutyryl)FER_]” as the substance, how does the collision cross section [6] read?
Answer: The collision cross section was 340.58 ± 1.9 Å².

Question: Which collision cross section [8] does the source give for “IYELAAGGTAVGTGLNTR [_IY(Nitro (Y))ELAAGGTAVGTGLNTR_]” here?
Answer: Its collision cross section is 447.13 ± 1.1 Å².

Question: What does the source list for KYEEIDNAPEER [_K(Crotonyl)YEEIDNAPEER_]?
Answer: collision cross section [9]: 413.83 ± 0.55 Å²; collision cross section [10]: 493.07 ± 1.6 Å²

Question: Which collision cross section [4] does the source give for “DKALPLEAEVAPVK [_DK(GlyGly (K))ALPLEAEVAPVK_]” here?
Answer: The collision cross section was 422.58 ± 0.97 Å².

Question: What about the collision cross section [5] of the same substance?
Answer: Its collision cross section is 511.69 ± 1.3 Å².

Question: For TSYAQHQQVR [_TSY(Nitro (Y))AQHQQVR_], which collision cross section [8] is on record?
Answer: The collision cross section was 366.98 ± 0.94 Å².

Question: And the collision cross section (charge state: 3, modification: Nitro (Y))?
Answer: The collision cross section was 458.71 ± 1.2 Å².

Question: Which collision cross section (charge state: 3, modification: Hydroxyproline) does the source give for “TGPPGSTGSRGPPGPPGR [_TGPPGSTGSRGPPGPP(Hydroxyproline)GR_]” here?
Answer: Its collision cross section is 472.54 ± 0.36 Å².

Question: With “FDDTNPEKEEAK [_FDDTNPEK(hydroxyisobutyryl)EEAK_]” as the substance, how does the collision cross section [6] read?
Answer: The collision cross section was 401.52 ± 0.54 Å².

Question: And the collision cross section [7]?
Answer: The collision cross section was 443.87 ± 2.2 Å².

Question: For TLQKQSVVYGGK [_TLQK(Formyl)QSVVYGGK_], which collision cross section [11] is on record?
Answer: Its collision cross section is 387.94 ± 1 Å².

Question: With “PARGLYSR [_PAR(Citrullination (R))GLYSR_]” as the substance, how does the collision cross section [1] read?
Answer: The collision cross section was 324.52 ± 2.2 Å².

Question: With LELAQYR [_LELAQY(Nitro (Y))R_] as the substance, how does the collision cross section [8] read?
Answer: The collision cross section was 326.89 ± 0.56 Å².

Question: Which collision cross section [11] does the source give for “SDSGKPYYYNSQTK [_SDSGK(Formyl)PYYYNSQTK_]” here?
Answer: The collision cross section was 417.77 ± 0.18 Å².

Question: For “DASTLQSQKAEGTGDAK [_DASTLQSQK(Gluratylation)AEGTGDAK_]”, which collision cross section (charge state: 2, modification: Glutarylation) is on record?
Answer: The collision cross section was 440.54 ± 1.5 Å².

Question: And the collision cross section (charge state: 3, modification: Glutarylation)?
Answer: Its collision cross section is 515.28 ± 0.85 Å².

Question: With DDSNLYINVK [_DDSNLY(Phospho (Y))INVK_] as the substance, how does the collision cross section (charge state: 2, modification: Phospho (Y)) read?
Answer: The collision cross section was 368.08 ± 0.064 Å².

Question: Which collision cross section [9] does the source give for SSFAYKDQNENR [_SSFAYK(Crotonyl)DQNENR_] here?
Answer: The collision cross section was 403.46 ± 0.27 Å².

Question: What about the collision cross section [10] of the same substance?
Answer: Its collision cross section is 461.83 ± 1.6 Å².

Question: Which collision cross section (charge state: 3, modification: Methyl (R)) does the source give for “RGFGFGGFAISAGK [_R(Methyl (R))GFGFGGFAISAGK_]” here?
Answer: The collision cross section was 488.52 ± 3.4 Å².

Question: With IQTKAGEATVK [_IQTK(Butyryl)AGEATVK_] as the substance, how does the collision cross section (charge state: 2, modification: Butyryl) read?
Answer: Its collision cross section is 371.66 ± 1.8 Å².

Question: Which results are given for “VTLEVGKVIQQGR [_VTLEVGK(Acetyl (K))VIQQGR_]”?
Answer: collision cross section [12]: 405.94 ± 0.47 Å²; collision cross section [13]: 479.97 ± 2.5 Å²

Question: Which collision cross section [12] does the source give for “AAQASDLEKIHLDEK [_AAQASDLEK(Acetyl (K))IHLDEK_]” here?
Answer: Its collision cross section is 454.7 ± 2.5 Å².

Question: What about the collision cross section [13] of the same substance?
Answer: Its collision cross section is 495.59 ± 1.3 Å².
